Experimental data reported in article PMC6776071 (2019).
Bridge positions count the residues as written; N and C are the ends.

Molecular target: thrombin (bovine alpha-thrombin) (bovine)
Test: SPR

Binder | Kd [µM]
mature hirudin-HN protein (Hir) (natural protein) NRYSVCTETGQNLCLCEGSDLCSLDNHCEIGSNGKNRCVKGEGKPKKPQSNSDLPEEKYEPIPIEDYDK | 0.0647
M-Hir (M-hirudin-HN-His tag) (natural protein, disulfide 7-15, 17-29, 23-39) MNRYSVCTETGQNLCLCEGSDLCSLDNHCEIGSNGKNRCVKGEGKPKKPQSNSDLPEEKYEPIPIEDYDK | 2.97
